Laboratory results from patent publication US20230235058A1 (OXFORD UNIVERSITY INNOVATION, published 2023).

T1: full length cynomolgus BTLA expressed on Jurkat cells (cynomolgus monkey, UniProt Q7Z6A9 31-289 (human entry))
T1 construct: also called cynomolgus BTLA expressing cells
T1 chain: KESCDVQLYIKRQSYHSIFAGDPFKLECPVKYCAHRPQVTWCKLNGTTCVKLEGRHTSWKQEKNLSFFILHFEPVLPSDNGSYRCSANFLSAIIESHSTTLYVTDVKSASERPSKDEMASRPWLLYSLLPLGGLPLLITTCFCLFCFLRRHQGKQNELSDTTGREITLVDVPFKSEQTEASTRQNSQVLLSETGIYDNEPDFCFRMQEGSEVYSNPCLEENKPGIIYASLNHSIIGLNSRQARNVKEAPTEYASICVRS


Experiments:
[1] = target: chimeric BTLA of humanised-BTLA mice (human extracellular region, murine transmembrane and signaling … (human; mouse, UniProt Q7TSA3 184-306, limits assumed); assay: cell-based or functional assay
Chain of chimeric BTLA of humanised-BTLA mice (human extracellular region, murine transmembrane and signaling … (Q7TSA3 other isoform, or with tags, fused parts or gaps mutant limits assumed): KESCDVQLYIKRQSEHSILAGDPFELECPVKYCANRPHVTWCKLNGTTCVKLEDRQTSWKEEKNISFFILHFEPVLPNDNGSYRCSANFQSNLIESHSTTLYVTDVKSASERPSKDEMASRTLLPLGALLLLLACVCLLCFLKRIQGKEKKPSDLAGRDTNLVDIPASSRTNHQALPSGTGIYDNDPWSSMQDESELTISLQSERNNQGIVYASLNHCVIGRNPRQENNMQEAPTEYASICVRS

[2] = target: T1, full length cynomolgus BTLA expressed …; assay: flow cytometry, BTLA Jurkat cells
Method: A lentiviral transfection system was used to express full length human or cynomolgus BTLA in a Jurkat T cell line. 1×10⁵ cells per well were plated in 96 well U-bottom plates. […] Secondary antibody was incubated for 30 minutes on ice, then cells were washed and resuspended in FACS buffer for analysis on a flow cytometer. The geometric mean fluorescent intensity of secondary antibody was plotted for each concentration and the EC50 for receptor binding calculated by non-linear curve fitting using GraphPad Prism software.
The ability of the BTLA agonist antibodies of the present invention to bind to human or cynomolgus BTLA expressed on the cell surface was assessed by flow cytometry. A lentiviral transfection system was used to express full length human or cynomolgus BTLA in a Jurkat T cell line. 1×10⁵ cells per well were plated in 96 well U-bottom plates.

E57R = target: T2, E57R (Mus musculus); assay: flow cytometry, GFP-positive transfected HEK-293T cells, fluorochrome-conjugated antibody at 10 ug/ml, Geo-mean relative to wild type;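 note: cells express mutant human BTLA ectodomain fused to murine CD28 transmembrane and cytoplasmic parts, stained 48 h after transfection for 1 h at 4 °C alongside a Live/Dead dye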
T2 construct: transmembrane and intracellular regions; also called BTLA E57R construct
T2 sequence (Q7Z6A9 31-151 E57R): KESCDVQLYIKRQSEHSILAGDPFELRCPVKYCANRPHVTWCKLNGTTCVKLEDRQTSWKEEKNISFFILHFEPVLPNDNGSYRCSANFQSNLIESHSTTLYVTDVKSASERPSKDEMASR
Method: (§1) Constructs encoding the human extracellular region of BTLA with the transmembrane and intracellular regions of murine CD28 were cloned into the bi-cistronic mammalian expression vector pGFP2-n2 (BioSignal Packard Ltd), which also encodes GFP. […] Mock and no-transfection controls were included with each experiment. Cells were harvested at 48 hours and stained with fluorochrome-conjugated anti-BTLA antibody at 10 μg/ml, alongside a Live/Dead marker, in PBS, 0.05% azide, 2% FCS (FACS buffer) for 1 h at 4° C. Cells were washed, pelleted and resuspended in 200 μl FACS buffer before being analysed on a BD FACSCanto flow cytometer. […] For each mutant the Geo-mean of anti-BTLA antibody binding to transfected cells was expressed as a percentage of binding to the wild-type receptor (FIG. 3b). A panel of anti-BTLA antibodies was assessed and any mutation that eliminated binding of all antibodies was excluded from the analysis, on the assumption that such mutations lead to drastic changes in protein folding or expression rather than indicating an antibody epitope.

N65R = target: T3, N65R (Mus musculus); assay: as above
T3 construct: transmembrane and intracellular regions; also called BTLA N65R construct
Method: as §1

T78R = target: T4, T78R (Mus musculus); assay: as above
T4 construct: transmembrane and intracellular regions; also called BTLA T78R construct
T4 sequence (Q7Z6A9 31-151 T78R): as the sequence (Q7Z6A9 31-151 E57R) above, with R27E, T48R counted along it
Method: as §1

V80R = target: T5, V80R (Mus musculus); assay: as above
T5 construct: transmembrane and intracellular regions; also called BTLA V80R construct
Method: as §1

K81L = target: T6, K81L (Mus musculus); assay: as above
T6 construct: transmembrane and intracellular regions; also called BTLA K81L construct
Method: as §1

E83R = target: T7, E83R (Mus musculus); assay: as above
T7 construct: transmembrane and intracellular regions; also called BTLA E83R construct
Method: as §1

Q86R = target: T8, Q86R (Mus musculus); assay: as above
T8 construct: transmembrane and intracellular regions; also called BTLA Q86R construct
Method: as §1

D35R = target: T9, D35R (Mus musculus); assay: as above
T9 construct: transmembrane and intracellular regions; also called BTLA D35R construct
T9 sequence (Q7Z6A9 31-151 D35R): as the sequence (Q7Z6A9 31-151 E57R) above, with D5R, R27E counted along it
Method: as §1

E92R = target: T10, E92R (Mus musculus); assay: as above
T10 construct: transmembrane and intracellular regions; also called BTLA E92R construct
Method: as §1

L106R = target: T11, L106R (Mus musculus); assay: as above
T11 construct: transmembrane and intracellular regions; also called BTLA L106R construct
Method: as §1

Q120R = target: T12, Q120R (Mus musculus); assay: as above
T12 construct: transmembrane and intracellular regions; also called BTLA Q120R construct
Method: as §1

S121R = target: T13, S121R (Mus musculus); assay: as above
T13 construct: transmembrane and intracellular regions; also called BTLA S121R construct
T13 sequence (Q7Z6A9 31-151 S121R): as the sequence (Q7Z6A9 31-151 E57R) above, with R27E, S91R counted along it
Method: as §1

L123R = target: T14, L123R (Mus musculus); assay: as above
T14 construct: transmembrane and intracellular regions; also called BTLA L123R construct
Method: as §1

Y132R = target: T15, Y132R (Mus musculus); assay: as above
T15 construct: transmembrane and intracellular regions; also called BTLA Y132R construct
T15 sequence (Q7Z6A9 31-151 Y132R): as the sequence (Q7Z6A9 31-151 E57R) above, with R27E, Y102R counted along it
Method: as §1

K137E = target: T16, K137E (Mus musculus); assay: as above
T16 construct: transmembrane and intracellular regions; also called BTLA K137E construct
T16 sequence (Q7Z6A9 31-151 K137E): as the sequence (Q7Z6A9 31-151 E57R) above, with R27E, K107E counted along it
Method: as §1

R42E = target: T17, R42E (Mus musculus); assay: as above
T17 construct: transmembrane and intracellular regions; also called BTLA R42E construct
Method: as §1

E45R = target: T18, E45R (Mus musculus); assay: as above
T18 construct: transmembrane and intracellular regions; also called BTLA E45R construct
T18 sequence (Q7Z6A9 31-151 E45R): as the sequence (Q7Z6A9 31-151 E57R) above, with E15R, R27E counted along it
Method: as §1

S47R = target: T19, S47R (Mus musculus); assay: as above
T19 construct: transmembrane and intracellular regions; also called BTLA S47R construct
T19 sequence (Q7Z6A9 31-151 S47R): as the sequence (Q7Z6A9 31-151 E57R) above, with S17R, R27E counted along it
Method: as §1

P53R = target: T20, P53R (Mus musculus); assay: as above
T20 construct: transmembrane and intracellular regions; also called BTLA P53R construct
T20 sequence (Q7Z6A9 31-151 P53R): as the sequence (Q7Z6A9 31-151 E57R) above, with P23R, R27E counted along it
Method: as §1

| AntiCD3/CD28 (CD4 T cell proliferation) repeat 1 [1] | AntiCD3/CD28 (CD4 T cell proliferation) repeat 2 [1] | AntiCD3/CD28 (CD69+ CD4 T cells) repeat 1 [1] | AntiCD3/CD28 (CD69+ CD4 T cells) repeat 2 [1] | MLR (CD4 T cell proliferation) repeat 1 [1] | MLR (CD4 T cell proliferation) repeat 2 [1] | EC50 [2] | binding as % of binding to wild-type BTLA (E57R) | binding as % of binding to wild-type BTLA (N65R) | binding as % of binding to wild-type BTLA (T78R) | binding as % of binding to wild-type BTLA (V80R) | binding as % of binding to wild-type BTLA (K81L) | binding as % of binding to wild-type BTLA (E83R) | binding as % of binding to wild-type BTLA (Q86R) | binding as % of binding to wild-type BTLA (D35R) | binding as % of binding to wild-type BTLA (E92R) | binding as % of binding to wild-type BTLA (L106R) | binding as % of binding to wild-type BTLA (Q120R) | binding as % of binding to wild-type BTLA (S121R) | binding as % of binding to wild-type BTLA (L123R) | Binder | also measured |
| --- | --- | --- | --- | --- | --- | --- | --- | --- | --- | --- | --- | --- | --- | --- | --- | --- | --- | --- | --- | --- | --- |
| 21 % inhibition | 28 % inhibition | 50 % inhibition | 47 % inhibition | 23 % inhibition | 18 % inhibition | 0.0057 nM | 108% | 87.9% | 109% | 39.9% | 116% | 95.5% | 132% | 71.2% | 73.3% | 135% | 89.9% | 42.5% | 116% | 11.5.1 (antibody, V domains shown, mouse IgG1k hybridoma antibody) VH: EVQLQESGPSLVKPSQTLSLTCSVTGDSITSAYWNWIRKFPGNKLEYMGYISYSGSTYFNPSLKSRISITRNTSKNQYYLQLNSVTTEDTATYYCARSHYYGYYFDYWGHGTTLTVSS VL: DIVLTQSPASLAVSLGQRATISCRASETIDSYGDSLMHWYQQKAGQPPKLLIYRASNLESGIPARFSGSGSRTDFTLTINPVEADDVATYYCQQTDEDPYTFGGGTKLEIK | binding as % of binding to wild-type BTLA (Y132R): 68.1%; binding as % of binding to wild-type BTLA (K137E): 55.6%; binding as % of binding to wild-type BTLA (R42E): 72.3%; binding as % of binding to wild-type BTLA (E45R): 108%; binding as % of binding to wild-type BTLA (S47R): 108%; binding as % of binding to wild-type BTLA (P53R): 117% |
| 23 % inhibition | 35 % inhibition | 58 % inhibition | 67 % inhibition | 30 % inhibition | 36 % inhibition | 0.16 nM | 76.3% | 89% | 95.3% | 71.6% | 90.3% | 98.8% | 97.9% | 83.7% | 62.2% | 80.4% | 76.3% | 67.9% | 97.4% | 2.8.6 (antibody, V domains shown, mouse IgG1k hybridoma antibody; also called clone 2.8.6) VH: QVQLKESGPGLVAPSQSLSITCTVSGFSLTTYGVHWVRQSPGKGLEWLGVMWPGGRTSYNPAPMSRLSISKDNSKSQVFLKMNSLQTDDTAMYYCVRGDYEYDYYAMDYWGQGTSVTVSS VL: QIVLSQSPAILSASPGEKVTMTCRASSSVSYMHWYQQKPGSSPKPWIYATSNLASGVPARFSGSGSGTSYSLTISRMEAEDAATYYCHQWSSNPYTFGGGTKLEIK | binding as % of binding to wild-type BTLA (Y132R): 68.2%; binding as % of binding to wild-type BTLA (K137E): 80.1%; binding as % of binding to wild-type BTLA (R42E): 111%; binding as % of binding to wild-type BTLA (E45R): 96.3%; binding as % of binding to wild-type BTLA (S47R): 99.7%; binding as % of binding to wild-type BTLA (P53R): 55.6% |
